Holding throughout (assay): two-hybrid
The target in experiment [1] is HP0221-T25 (NifU) (Helicobacter pylori strain 26695) (UniProt O25009).
The target of experiment [2] is T25-HP0221 (NifU) (Helicobacter pylori strain 26695) (UniProt O25009).
Experiment [3] has as its target T25-HP0220 (NifS) (Helicobacter pylori strain 26695) (UniProt O25008).
The target of experiment [4] is T25-HP1492 (Nfu) (Helicobacter pylori strain 26695) (UniProt O26025).
A further experiment concerns the target T25-Zip.

T25-Zip, sequence (P03069 whole entry): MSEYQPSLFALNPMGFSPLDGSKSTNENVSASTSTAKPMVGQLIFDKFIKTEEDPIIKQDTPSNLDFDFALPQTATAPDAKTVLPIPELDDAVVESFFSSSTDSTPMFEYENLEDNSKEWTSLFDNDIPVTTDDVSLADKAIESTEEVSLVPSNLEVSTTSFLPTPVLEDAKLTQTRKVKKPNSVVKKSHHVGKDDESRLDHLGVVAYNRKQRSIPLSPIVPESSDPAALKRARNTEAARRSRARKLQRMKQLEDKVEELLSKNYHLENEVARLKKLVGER
T18-Zip (domain or fragment), sequence (P03069 whole entry, the tested form may be a part): as the sequence (P03069 whole entry) above

With “T18-HP0117 (from UniProt P56080 2-308) (natural protein)”, the growth OD595 in M63-maltose in experiment [1] turned out to be 0.36 OD595.

Substance “T18-HP0142 (from UniProt O24954 2-328) (natural protein)” displayed a growth OD595 in M63-maltose in experiment [1] of 0.44 OD595.

Take “T18-HP0221 (from UniProt O25009 2-326) (natural protein)”: the growth OD595 in M63-maltose in experiment [2] worked out at 0.37 OD595.

“T18-HP0285 (from UniProt P56130 2-418) (natural protein)” had a growth OD595 in M63-maltose in experiment [1] of 0.25 OD595.

“T18-HP0400 (from UniProt P65185 2-274) (natural protein)” had a growth OD595 in M63-maltose in experiment [2] of 0.11 OD595.

Regarding “T18-HP0468 (from UniProt O25214 2-495) (natural protein)”, in experiment [1], the growth OD595 in M63-maltose turned out to be 0.29 OD595.

In experiment [1], “T18-HP0768 (from UniProt P56414 2-321) (natural protein)” returned a growth OD595 in M63-maltose of 0.21 OD595.

In the case of “T18-HP0934 (from UniProt O25588 2-251) (natural protein)”, the growth OD595 in M63-maltose in experiment [1] was found to be 0.13 OD595.

In experiment [2], “T18-HP1266 (from UniProt O25856 2-844) (natural protein)” returned a growth OD595 in M63-maltose of 0.32 OD595.

Turning to “T18-HP1406 (from UniProt O25956 2-282) (natural protein)”, in experiment [1], the growth OD595 in M63-maltose amounted to 0.26 OD595.

With T18-HP1492 (natural protein), the growth OD595 in M63-maltose in experiment [1] was 0.29 OD595; in experiment [3], 0.32 OD595; in experiment [2], 0.13 OD595; in experiment [4], 0.39 OD595.

In the experiment with T25-Zip, T18-Zip (domain or fragment) had a growth OD595 in M63-maltose of 0.23 OD595.

These data come from PMC5943153.
